This experiment deals with human APJ receptor (human) (UniProt P35414). The experiment is described as follows: cell-based or functional assay.
Sequence of human APJ receptor (human) (P35414 whole entry): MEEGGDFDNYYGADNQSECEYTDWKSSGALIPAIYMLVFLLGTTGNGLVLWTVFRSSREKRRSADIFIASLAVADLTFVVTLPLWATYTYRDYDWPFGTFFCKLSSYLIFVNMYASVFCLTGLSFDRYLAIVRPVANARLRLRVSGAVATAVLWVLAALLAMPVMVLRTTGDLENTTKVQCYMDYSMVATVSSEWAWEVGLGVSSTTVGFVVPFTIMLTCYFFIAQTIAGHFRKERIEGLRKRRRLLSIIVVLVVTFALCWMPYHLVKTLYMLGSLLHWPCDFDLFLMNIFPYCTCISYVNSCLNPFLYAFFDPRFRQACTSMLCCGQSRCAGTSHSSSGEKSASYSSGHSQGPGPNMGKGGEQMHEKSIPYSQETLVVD

Take “Example 20: pE-R-P-R-L-S-Aib-K-C*-P-Nle-C*-f-OH (peptide)”: the hAPJ Ca2+ Flux EC50 amounted to 6.1 nM.
Under “Example 6: pE-R-P-R-L-S-hC*-K-G-P-Nle-(D-hC)*-F-OH (peptide)” stands 92.8 nM; under “Example 3: pE-R-P-R-L-S-C*-K-G-P-Nle-C*-F-OH (peptide)”, 128 nM.
The same measure for “Example 19: pE-R-P-R-L-a-Aib-K-C*-P-Nle-C*-f-OH (peptide)”: 72.3 nM; for “Example 8: pE-R-P-R-L-S-(D-hC)*-K-G-P-Nle-C*-F-OH (peptide)”: 613 nM; for “Example 9: pE-R-P-R-L-S-(D-hC)*-K-G-P-Nle-hC*-F-OH (peptide)”: 1030 nM.
Under “Example 17: pE-R-P-R-L-a-H-K-C*-P-Nle-C*-f-OH (peptide)” stands 1.9 nM; under “Example 2: pE-R-P-R-hC*-S-H-K-G-P-(D-Nle)-C*-y-OH (peptide)”, 154 nM; under “Example 18: Isonipecotoyl-R-P-R-L-a-H-K-C*-P-Nle-C*-f-OH (peptide)”, 2.3 nM.
In turn, “Example 7: pE-R-P-R-L-S-(D-hC)*-K-G-P-Nle-(D-hC)*-F-OH (peptide)” returned a hAPJ Ca2+ Flux EC50 of 781 nM.
Under “Example 1: pE-R-P-R-C*-S-H-K-G-P-Nle-C*-F-OH (peptide)” stands 0.74 nM; under “Example 13: pE-R-P-R-L-S-hC*-K-G-P-Nle-hC*-F-OH (peptide)”, 760 nM.
Under “Example 14: pE-R-P-R-L-S-H-K-C*-P-Nle-C*-F-OH (peptide)” stands 0.81 nM.
The same measure for “Example 11: pE-R-P-R-L-S-C*-K-G-P-Nle-c*-F-OH (peptide)”: 113 nM.
In the case of “Example 5: pE-R-P-R-L-S-c*-K-G-P-Nle-(D-hC)*-F-OH (peptide)”, the hAPJ Ca2+ Flux EC50 stood at 981 nM.
Substance “Example 16: pE-R-P-R-L-S-a-K-C*-P-Nle-C*-f-OH (peptide)” registered a hAPJ Ca2+ Flux EC50 of 33.2 nM.
Under “Example 15: pE-R-P-R-L-S-Aib-K-C*-P-Nle-C*-NH(Phenethyl) (peptide)” stands 4 nM; under “Example 10: pE-R-P-R-L-S-(D-hC)*-K-G-P-Nle-C*-OH (peptide)”, 976 nM; under “Example 4: pE-R-P-R-L-S-C*-K-G-P-Nle-(D-hC)*-F-OH (peptide)”, 406 nM.
Under “Example 21: pE-R-P-R-L-s-H-K-C*-P-Nle-C*-f-OH (peptide)” stands 9.7 nM.
The substance “Example 12: pE-R-P-R-L-S-C*-K-G-P-Nle-hC*-F-OH (peptide)” showed a hAPJ Ca2+ Flux EC50 of 81.7 nM.

Source of the values: patent publication US20160145309A1.
